Results published in patent US20240252673A1, “ANTI-TISSUE FACTOR ANTIBODY-DRUG CONJUGATES AND THEIR USE IN THE TREATMENT OF CANCER” (priority 2017, published 2024).

Tests used:
Type in all cases: in vivo, human
[1] = Phase I/II dose-escalation study: plasma pharmacokinetics; details: cycle 1, plasma, geometric mean (% CV)
Method: A first-in-human phase I/II dose-escalating study following a 3+3 dose-escalation design was conducted in order to test the safety of tisotumab vedotin in 27 subjects with locally advanced and/or metastatic cancer of various types including cervical cancer (FIG. 2). Tisotumab vedotin was administered by intravenous infusion at doses ranging from 0.3 mg/kg to 2.2 mg/kg on day 1 of a 21-day cycle for four cycles (i.e., each treatment cycle was 3 weeks). Patients with stable disease (SD) or better at the end of four cycles had the option to continue treatment with tisotumab vedotin for eight additional cycles (FIG. 2). Tumor evaluations were performed by CT scans every six weeks. In order to qualify for SD, results of the CT scan scheduled for week six needed to be SD or better. Two CT scans were performed outside the per-protocol defined window.
A primary objective of the study was to assess the safety and tolerability in a mixed population of patients with specified solid tumors. Adverse event (AE) severity was graded according to Common Terminology Criteria for Adverse Events (CTCAE) version 4.03. Secondary objectives of the study included determining the pharmacokinetic (PK) profile of tisotumab vedotin and preliminary evaluation of anti-tumor activity as assessed according to Response Evaluation Criteria in Solid Tumors [RECIST] version 1.1. Dose-limiting toxicities (DLTs) were determined during the first cycle and were defined as grade≥3 events possibly related to tisotumab vedotin. […] Tumor biopsies were required at baseline for TF expression which was assessed by immunohistochemistry utilizing tisotumab. TF staining intensity was determined using the H-scoring system.
The geometric means (% CV) of the time to reach Cmax (Tmax)(hr), maximum concentration (Cmax)(ng/mL), and area under the concentration time curve (AUC)0-t (hr*ng/mL) was measured for the pharmacokinetics (PK) portion of the study (Table 3). Low levels of unconjugated MMAE were measured in systemic circulation (FIG. 4).

[2] = tested on: patients with relapsed, recurrent and/or metastatic cervical cancer; experiment: Phase IIa single arm trial: safety and tolerability (CTCAE v4.03); details: 2.0 mg/kg q3w
Method: A Phase IIa single arm, multicenter trial investigated the efficacy, safety and tolerability of 2.0 mg/kg tisotumab vedotin in patients with relapsed, recurrent and/or metastatic cervical cancer. A total of 34 patients (n=34) were enrolled and received at least 1 dose of tisotumab vedotin. Each eligible patient was assigned to receive an intravenous (IV) infusion dose of tisotumab vedotin at a concentration of 2.0 mg/kg on day 1 of a 21-day cycle (i.e., each treatment cycle was 3 weeks (q3w)).
Lyophilized vials containing 40 mg of tisotumab vedotin were stored in a refrigerator at 2° C. to 8° C. Tisotumab vedotin was reconstituted in 4 ml of water leading to a reconstituted solution comprising 10 mg/mL tisotumab vedotin, 30 mM histidine, 88 mM sucrose, and 165 mM D-mannitol. […] The reconstituted tisotumab vedotin was diluted into a 0.9% NaCl 100 mL infusion bag according to the dose calculated for the patient to receive 2.0 mg/kg tisotumab vedotin. Intravenous infusion was completed within 24 hours after the tisotumab vedotin vial had been reconstituted. A 0.2 μm in-line filter was used for the intravenous infusion. The entire 100 mL volume from the prepared infusion bag was administered. No dead volume was provided.
A primary objective of the study was to assess safety and tolerability of tisotumab vedotin. Adverse event (AE) severity was graded according to CTCAE version 4.03. A secondary objective was preliminary evaluation of anti-tumor activity durability as assessed according to RECIST version 1.1. Tumor evaluations were performed by CT scans every six weeks.

[3] = tested on: tisotumab vedotin treated patients; experiment: Adverse events of special interest reported in tisotumab vedotin treated patients
Source text: Three adverse events of special interest are ocular adverse events, adverse events of peripheral neuropathy, and adverse events of bleeding. […] Severe cases (CTCAE grade 3) of conjunctivitis and keratitis are observed, however implementation of a comprehensive mitigation plan and preventive measures substantially reduce both the frequency and severity of ocular adverse reactions. In order to prevent ocular AEs, the following ocular pre-medication guidelines are followed: use of preservative-free lubricating eye drops from the start of treatment with tisotumab vedotin until the end of treatment; avoid use of contact lenses while treated with tisotumab vedotin; use of refrigerator-based eye cooling pads during infusion, e.g. THERA PEARL Eye Mask or similar, to be applied immediately before infusion in accordance with the instructions provided with the eye cooling pads; administration of local ocular vasoconstrictor before infusion (brimonidine tartrate 0.2% eye drops or similar, 3 drops in each eye immediately prior to start of infusion; otherwise to be used in accordance with the product prescribing information).
A mitigation plan, including dose reduction (see Table 9) and dose delay (i.e., hold dosing until event has improved to ≤grade 1), is in place to prevent onset of peripheral neuropathy as well as deterioration of pre-existing conditions. For AEs of bleeding: Bleeding events are considered of special interest due to the mode of action of tisotumab vedotin. […] Excluding epistaxis, no causal relation has been established for the majority of the reported bleeding events and treatment with tisotumab vedotin.

Substance: tisotumab vedotin
- AUC0-t ([1]; 0.3 mg/kg, N 3): 59216.8 (3%) hr * ng/ml
- Cmax ([1]; 0.3 mg/kg, N 3): 4782.7 (12%) ng/ml
- Tmax ([1]; 0.3 mg/kg, N 3): 1.5 (73%) hr
- AUC0-t ([1]; 0.6 mg/kg, N 3): 368432.7 (8%) hr * ng/ml
- Cmax ([1]; 0.6 mg/kg, N 3): 12195.3 (10%) ng/ml
- Tmax ([1]; 0.6 mg/kg, N 3): 1.2 (13%) hr
- AUC0-t ([1]; 0.9 mg/kg, N 3): 601926.2 (17%) hr * ng/ml
- Cmax ([1]; 0.9 mg/kg, N 3): 19811.6 (17%) ng/ml
- Tmax ([1]; 0.9 mg/kg, N 3): 1.3 (12%) hr
- AUC0-t ([1]; 1.2 mg/kg, N 3): 1084672.7 (9%) hr * ng/ml
- Cmax ([1]; 1.2 mg/kg, N 3): 34673.1 (19%) ng/ml
- Tmax ([1]; 1.2 mg/kg, N 3): 1.3 (12%) hr
- AUC0-t ([1]; 1.5 mg/kg, N 3): 794988.4 (19%) hr * ng/ml
- Cmax ([1]; 1.5 mg/kg, N 3): 23115.6 (21%) ng/ml
- Tmax ([1]; 1.5 mg/kg, N 3): 1.1 (9.6%) hr
- AUC0-t ([1]; 1.8 mg/kg, N 3): 1504823.8 (50%) hr * ng/ml
- Cmax ([1]; 1.8 mg/kg, N 3): 35416.3 (39%) ng/ml
- Tmax ([1]; 1.8 mg/kg, N 3): 1.2 (14%) hr
- AUC0-t ([1]; 2.0 mg/kg, N 3): 1256379.7 (33%) hr * ng/ml
- Cmax ([1]; 2.0 mg/kg, N 3): 32296.1 (22%) ng/ml
- Tmax ([1]; 2.0 mg/kg, N 3): 1.2 (8%) hr
- AUC0-t ([1]; 2.2 mg/kg, N 6): 2037070.5 (34%) hr * ng/ml
- Cmax ([1]; 2.2 mg/kg, N 6): 55530.3 (10%) ng/ml
- Tmax ([1]; 2.2 mg/kg, N 6): 1.1 (13%) hr
- grade 4 or grade 5 events ([2]; 34 patients): no grade 4 or grade 5 events
- patients withdrew from treatment due to AE ([2]; 34 patients): 5 n
- patients experienced conjunctivitis at grade≥3 ([2]; after mitigation (n=19)): 5%
- patients experienced conjunctivitis of any grade ([2]; after mitigation (n=19)): 32%
- patients experienced conjunctivitis of any grade ([2]; prior to mitigation (n=15)): 73%
- safety profile, overall conclusion ([2]; cervical cancer cohort): manageable safety profile
- AEs of grade 1-2 conjunctivitis ([3]; human, in vivo): frequently reported
- impact on activated partial thromboplastin time (aPTT) or prothrombin time (PT) ([3]; human, in vivo): no major impact
- peripheral neuropathy, grade of the reported cases ([3]; leading cause of permanent discontinuation): majority of the reported cases are grade 1-2
- Epistaxis ([3]; nearly all of the cases are grade 1): most common reported AE
